Assay results from doi:10.1101/2025.06.17.660173, “Twinfilin is a potent uncapper of actin capping protein and modulates actomyosin contractility in the C. elegans spermatheca” (bioRxiv, 2025).

Target: T1, biotinylated SNAP tagged C. elegans heterodimeric capping protein (CAP-1/CAP-2) (C. elegans, UniProt P34685 1-282; P34686 1-270, biotin on the SNAP tag (benzylguanine-biotin); the subunit that carries it is not stated | biotin on the SNAP tag (benzylguanine-biotin); the subunit that carries it is not stated)
T1 construct: CAP-1, a capping protein subunit of C. elegans; CAP-2, a capping protein subunit of C. elegans; The complex was anchored to streptavidin-coated coverslips by the biotin; also called SNAP-CP; CP; source: E. coli BL21 DE3, purified (HisTrap, Superose 6), labelled with benzylguanine-biotin; not shown: His tag (from the HisTrap purification)
T1 sequence (looked up) 1: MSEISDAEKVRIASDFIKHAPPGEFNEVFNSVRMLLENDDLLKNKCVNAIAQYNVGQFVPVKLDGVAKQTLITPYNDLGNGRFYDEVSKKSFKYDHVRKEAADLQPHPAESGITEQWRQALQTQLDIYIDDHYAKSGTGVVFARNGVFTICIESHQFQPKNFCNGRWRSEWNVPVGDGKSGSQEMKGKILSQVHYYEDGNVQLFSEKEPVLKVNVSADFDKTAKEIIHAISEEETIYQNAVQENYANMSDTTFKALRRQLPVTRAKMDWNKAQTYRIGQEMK
T1 sequence (looked up) 2: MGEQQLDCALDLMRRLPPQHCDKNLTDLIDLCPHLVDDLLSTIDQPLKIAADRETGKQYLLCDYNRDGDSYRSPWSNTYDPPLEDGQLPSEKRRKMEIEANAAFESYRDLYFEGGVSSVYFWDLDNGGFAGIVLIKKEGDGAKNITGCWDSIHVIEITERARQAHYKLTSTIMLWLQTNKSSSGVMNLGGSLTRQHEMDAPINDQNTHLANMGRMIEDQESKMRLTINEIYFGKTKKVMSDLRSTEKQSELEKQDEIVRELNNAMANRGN
Assay: mf-TIRF microscopy uncapping assay; biotinylated SNAP-CP anchored to the coverslip; preformed Alexa-488-labelled (15%) ADP-actin filaments captured; filament detachment followed with and without TWF-2 in TIRF buffer (10 mM imidazole pH 7.4, 50 mM KCl, 1 mM MgCl2, 1 mM EGTA, 0.2 mM ATP, 10 mM DTT); survival fitted to a single exponential
Details: both partners purified

B1: C. elegans TWF-2 (6×His-tagged), recombinant (natural protein, UniProt Q20173 1-333, looked up)
chain: MACQTGIRANAALRNALNLGKQAKLRLIKIVVNNEEMTPNYEFAGTANWRDDWRACLPDCVDAYEPCFILFRLNTITEWVLITFVDDRAPVREKMLLAATCATFKSEFGQCYIEHEKHVTDLKDLTLNAFEAWLKAKTELGPMSEVERELHNAQQERAAIAHAGPQHMKGVAFPVDRNAEEALRQLASQKLSFVQLSVDTLNEAIKLEGTLESLEPSQLASKVPRDKPRYTFYNFDHTWEGVPQQCTLFIYSLPSSGSSIKERMLYSSCKGPFLSAAQNQYGVVITNKMEVDARDDLSEKALLEVIHPLPVEAPKQFSRPAPPRAGPRRITKV
notes: TWF-2, the sole twinfilin ortholog of C. elegans; also called twinfilin; C. elegans twinfilin; source: E. coli BL21 (pRare), purified (Ni-NTA, Superdex 75 Increase)
B1 was tested. Which “fold acceleration of uncapping of CP from actin filaments” value did it give?
The value was greater than 90 fold.
